Substrate in data set [1]: N[C@@H](CO)C(=O)O
Kind of data set: purified protein. It is filed as biochemical, Caulobacter vibrioides. Particulars: 250 μM C16:0-CoA, 100 mM HEPES, 250 mM NaCl, pH 7.0, 30 °C.

Substrate in data set [2]: CCCCCCCCCCCCCCCC(=O)SCCNC(=O)CCNC(=O)[C@H](O)C(C)(C)COP(=O)(O)OP(=O)(O)OC[C@H]1O[C@@H](n2cnc3c(N)ncnc32)[C@H](O)[C@@H]1OP(=O)(O)O
Kind of data set: purified protein. To be noted: 100 mM HEPES. It is filed as biochemical, Caulobacter vibrioides.

A word on the Km: it is the substrate concentration at which the rate is half of its maximum.

B1: Spt (CCNA_01220) (Caulobacter vibrioides NA1000) (protein)
chain: MGLFDKHLAYRDAYKAIQDVGANPFKVRFDAVHSPTEGVVDGRPTILLGTNNYLGLTFDEQAIAASVKAVQERGTGTTGSRIANGSFESHVELEQELAKFYGRKHAMVFTTGYQANLGVLSTLVGRGDHLILDADSHASIYDGSRLGHAEVIRFRHNDPEDLAKRLRRLGDAPGERLIVVEGIYSMIGDVAPLKEIAAVKREMGGYLLVDEAHSMGVLGATGRGLAEAAGVEEDVDFIVGTFSKSLGAIGGFCVSDHDDFDVMRVICRPYMFTASLPPAVAASTVTALRRMIEQPELRDRLNRNAKRLYDGLTAMGFLTGPSASPIVAATMPDQERAIAMWNGLLQAGVYLNLALPPATPDSRPLLRASVSAAHTDEQIDAVLKTYGEIGAALGVIEPLKRARA
As to B1, the Km was found to be 2980 ± 250 µM in the data set “purified protein [1]” and 110.40 ± 13.37 µM in “purified protein [2]” (20 mM L-serine, 250 mM NaCl, pH 7.0, 30 °C).

B2: bCerS (CCNA_01212) (Caulobacter vibrioides NA1000) (protein)
chain: MPFDSTNADLSVIPVKTPAELKRFIALPARLNAKDPNWITPLFMERTDALTPKTNPFFDHAEVQLFLATRGGRDVGRISAQIDQLTPQPTEGRLDGHFGMIAAEDDPAVFNVLFRAAEDWLRARGRTHAVGPFNLSINEEVGLLVWGFDTPPMVLMGHDPVYAGPRVEEQGYAKAQDLFAYKADETGDIPEIAQRRVKRGLPSGVVLRQLDMSRYDQEVQTLTEILNDAWSDNWGFTPTTEAETRQLAKSLKQVIDQRLVWFSEIDGEAAGVVVFLPNVNEAIADLKGKLLPFGWAKLLWRLKVKGVKSARIPLMGVKKKFQTSQRGRMLPFWMMKASRDMAMSLGYNRYEISWVLEANKAMTHIAENVGGTHYKTYRVYEKAL
On to B2, for which, in the data set “purified protein [2]” (with 3-KDS (40 μM), 150 mM NaCl, pH 7.5, 30 °C), the Km is 21.3 ± 4.1 µM.

The values are drawn from paper PMC8891067.
